{"source": "patent US12589164", "key": {"[1]": {"tested_on": "peptide probe with CM HQSRSAPWGLL (SEQ ID NO: 646)"}, "[2]": {"tested_on": "peptide probe with CM HASRSGPWGLL (SEQ ID NO: 642)"}, "[3]": {"tested_on": "(MCA)-His-Gln-Ser-Arg-Pro-Trp-Gly-Leu-Gly-Ser-Lys (DNP)-D-Arg (SEQ ID NO: 660)"}, "[4]": {"tested_on": "(MCA)-His-Gln-Ser-Arg-Ser-Ala-Ile-Ala-Leu-X1-Gly-Lys (DNP)-D-Arg (SEQ ID NO: 654) where X1 is Y"}, "[5]": {"tested_on": "peptide probe with CM HQSRSGPWALL (SEQ ID NO: 648)"}, "[6]": {"tested_on": "(MCA)-Ser-Pro-Trp-Gly-Leu-His-Gln-Ser-Lys-Ser-Lys (DNP)-D-Arg (SEQ ID NO: 664)"}, "[7]": {"tested_on": "(MCA)-His-Gln-Ser-Arg-Ser-Gly-Pro-Trp-Gly-Leu-X1-Lys (DNP)-D-Arg (SEQ ID NO: 659) where X1 is absent"}, "[8]": {"tested_on": "peptide probe with CM AQSRSGPWGLL (SEQ ID NO: 641)"}, "[9]": {"tested_on": "(MCA)-His-Gln-Ser-Arg-Ser-Pro-Trp-Gly-Leu-Gly-Lys (DNP)-D-Arg (SEQ ID NO: 665)"}, "[10]": {"tested_on": "peptide probe with CM HQSRSGPAGLL (SEQ ID NO: 639)"}, "[11]": {"tested_on": "peptide probe with CM HQSRSGAWGLL (SEQ ID NO: 647)"}, "[12]": {"tested_on": "D-Arg-Lys (DNP)-Ala-Ile-Ala-Leu-His-Gln-Ser-Arg-Ser-Lys (MCA)-D-Arg (SEQ ID NO: 658)"}, "[13]": {"tested_on": "peptide probe with CM HQSRAGPWGLL (SEQ ID NO: 645)"}, "[14]": {"tested_on": "(MCA)-Ser-Pro-Trp-Gly-Leu-His-Gln-Ser-Arg-Gly-Lys (DNP)-D-Arg (SEQ ID NO: 663)"}, "[15]": {"tested_on": "(MCA)-His-Gln-Ser-Arg-Ser-Ala-Ile-Ala-Leu-Gly-Ser-Lys (DNP)-D-Arg (SEQ ID NO: 655)"}, "[16]": {"tested_on": "peptide probe with CM HQARSGPWGLL (SEQ ID NO: 643)"}, "[17]": {"tested_on": "peptide probe with CM HQSASGPWGLL (SEQ ID NO: 644)"}, "[18]": {"tested_on": "peptide probe with CM HQSRSGPWGAL (SEQ ID NO: 649)"}, "[19]": {"tested_on": "(MCA)-His-Gln-Ser-Arg-Ser-Pro-Trp-Gly-Gly-Ser-Lys (DNP)-D-Arg (SEQ ID NO: 661)"}, "[20]": {"tested_on": "(MCA)-His-Gln-Ser-Arg-Ser-Ala-Ile-Ala-Leu-X1-X2-Lys (DNP)-D-Arg (SEQ ID NO: 653) where X1 is Y and X2 is A"}, "[21]": {"tested_on": "(MCA)-Ser-Pro-Trp-Gly-Leu-His-Gln-Ser-Arg-Ser-Lys (DNP)-D-Arg (SEQ ID NO: 657)"}, "[22]": {"tested_on": "peptide probe with CM HQSRSGPWGLA (SEQ ID NO: 650)"}}, "data": [{"substance": "MMP9", "values": [{"measurement": "Probe Cleavage (pM/s)", "setting": "[1]", "result": 10700, "unit": "pM/s"}, {"measurement": "Probe Cleavage (pM/s)", "setting": "[2]", "result": 6470, "unit": "pM/s"}, {"measurement": "Probe Cleavage (pM/s)", "setting": "[3]", "result": 9600, "unit": "pM/s"}, {"measurement": "Probe Cleavage (pM/s)", "setting": "[4]", "result": 328, "unit": "pM/s"}, {"measurement": "Probe Cleavage Kcat/KM", "setting": "[4]", "result": 57000, "unit": "M⁻¹ s⁻¹"}, {"measurement": "Probe Cleavage (pM/s)", "setting": "[5]", "result": 7500, "unit": "pM/s"}, {"measurement": "Probe Cleavage (pM/s)", "setting": "[6]", "result": 19300, "unit": "pM/s"}, {"measurement": "Probe Cleavage (pM/s)", "setting": "[7]", "result": 705, "unit": "pM/s"}, {"measurement": "Probe Cleavage (pM/s)", "setting": "[8]", "result": 7380, "unit": "pM/s"}, {"measurement": "Probe Cleavage (pM/s)", "setting": "[9]", "result": 372, "unit": "pM/s"}, {"measurement": "Probe Cleavage Kcat/KM", "setting": "[9]", "result": 11000, "unit": "M⁻¹ s⁻¹"}, {"measurement": "Probe Cleavage (pM/s)", "setting": "[10]", "result": 13900, "unit": "pM/s"}, {"measurement": "Probe Cleavage (pM/s)", "setting": "[11]", "result": 436, "unit": "pM/s"}, {"measurement": "Probe Cleavage (pM/s)", "setting": "[12]", "result": 2550, "unit": "pM/s"}, {"measurement": "Probe Cleavage (pM/s)", "setting": "[13]", "result": 7440, "unit": "pM/s"}, {"measurement": "Probe Cleavage (pM/s)", "setting": "[14]", "result": 18600, "unit": "pM/s"}, {"measurement": "Probe Cleavage (pM/s)", "setting": "[15]", "result": 41.9, "unit": "pM/s"}, {"measurement": "Probe Cleavage (pM/s)", "setting": "[16]", "result": 7430, "unit": "pM/s"}, {"measurement": "Probe Cleavage (pM/s)", "setting": "[17]", "result": 5410, "unit": "pM/s"}, {"measurement": "Probe Cleavage (pM/s)", "setting": "[18]", "result": 5.9, "unit": "pM/s"}, {"measurement": "Probe Cleavage (pM/s)", "setting": "[19]", "result": 86.5, "unit": "pM/s"}, {"measurement": "Probe Cleavage (pM/s)", "setting": "[20]", "result": 255, "unit": "pM/s"}, {"measurement": "Probe Cleavage Kcat/KM", "setting": "[20]", "result": 24000, "unit": "M⁻¹ s⁻¹"}, {"measurement": "Probe Cleavage (pM/s)", "setting": "[21]", "result": 5150, "unit": "pM/s"}, {"measurement": "Probe Cleavage Kcat/KM", "setting": "[21]", "result": 120000, "unit": "M⁻¹ s⁻¹"}, {"measurement": "Probe Cleavage (pM/s)", "setting": "[22]", "result": 6810, "unit": "pM/s"}]}]}
